Laboratory results from US7648964B2, “Use of lacritin in promoting ocular cell survival” (University of Virginia Patent Foundation, priority 2004, dated 2010).

Legend:
Leydig (TM4) cells = assay: 3H-thymidine uptake mitogenesis assay; assay type: cell-based, mouse
Method: (§1) For phosphotyrosine blotting and mitogenesis assays, cells in serum-containing media were seeded overnight in 24-well plates at a density of 0.5×10^5 cells/mm^2 corresponding to 20-30% confluency after cell attachment, incubated in serum-free media without supplements for 24 h (phosphotyrosine) or washed with serum-free media without supplements three times (mitogenesis) and incubated with lacritin (1-1000 nM), or positive controls EGF (1.6 nM) and 10% fetal bovine serum, or negative controls bovine serum albumin or no additive in serum-free media without supplements for the indicated times (phosphotyrosine) or 30 h (mitogenesis). […] After washing, bound antibodies were detected with peroxidase-labeled secondary antibody and ECL. […] Incorporation was stopped with ice-cold phosphate buffered saline and followed by addition of cold and then room temperature trichloracetic acid (10%) for 10 min each, washing of cells with phosphate buffered saline, solubilization with 1 N sodium hydroxide, neutralization with 1 N hydrochloric acid, addition of scintillation fluid and then quantitation in a scintillation counter. […] Seventy-two hours post-transfection, mitogenesis was assessed by co-addition of 10 […] lacritin and [^3H]-thymidine (2 mCi/ml) (Amersham, Piscataway N.J.) for 24 hrs. […]

Sertoli (TM3) cells = assay: 3H-thymidine uptake mitogenesis assay; assay type: cell-based, mouse
Method: as §1

B1: lacritin: recombinant human lacritin from E. coli; mature 119 residue fragment (SEQ ID NO:10) of native lacritin SEQ ID NO:4 (protein, listed as Homo sapiens)
chain: EDASSDSTGADPAQEAGTSKPNEEISGPAEPASPPETTTTAQETSAAAVQGTAKVTSSRQELNPLKSIVEKSILLTEQALAKAGKGMHGGVPGGKQFIENGSEFAQKLLKKFSLLKPWA
- mitogenesis (Leydig (TM4) cells): not mitogenic
- mitogenesis (Sertoli (TM3) cells): not mitogenic
